The RNAGym collection of RNA variant scans (doi:10.1073/pnas.2313332121)

B1: TPR t1 (parent)
chain: GACCAAUCUGCCCUCAGAGCUCGAGAACAUCUUCGGAUGCAGAGGAGGCAGGCUUCGGUGGCGCGAUAGCGCCAACGUCCUCAACCUCCAAUGCAUCCCACCACAUGAUGAUGCCUGAAGAGCCUUGGUUUUUUG

Variants of: B1
Experiment: polymerase ribozyme fitness, log enrichment relative to wild type (log ratio); higher = more active; in vitro selection for triplet polymerase activity
Summary of the method: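 Fitness is a logarithmic measure of how a genotype enriched relative to the wild type, with replicate averages weighted by inverse variance. The logarithm uses base 2, and enrichment came from Illumina sequencing of input and output libraries. Those libraries were PCR-built, transcribed mutants of each subunit of a heterodimeric triplet polymerase ribozyme, passed through one triplicate in vitro selection round that included frozen incubation at −7 °C, gel excision of extended constructs and streptavidin-bead capture. Genotypes were kept only if they had ≥10 input reads and ≥1 read per output.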

| Variant | polymerase ribozyme fitness (log ratio) |
| --- | --- |
| G23U A43U G60A | -7.42 |
| A43G G58C C62A C85U | -6.11 |
| C73U A95C U130A | -1.26 |
| A5C A83G U106A C123U G135A | -1.09 |
| G51A C99U C124A | -5.8 |
| C20A A37U U54A | -3.54 |
| A5C C11A U54A C104U | -0.94 |
| G39U G45U G48A C73A C79G G113A | -5.88 |
| A6U A75U C82A C115A U125A G128C | -3.75 |
| C20G G58A C89G G117U | -4.04 |
| A5C C15G G57U | -3.53 |
| G61U C89U U92G | -3 |
| C13U G57C U78C | 0.238 |
| G42A A46U C53A U87A | -2.21 |
| G127C G128A | -1.79 |
| C40G G52A | -0.59 |
| A2U A50U C56U | -3.13 |
| A27G A74C C115G | -6.8 |
| C12A C56A C62U A91U G128C | -5.72 |
| G44C C94G A121G | 0.2 |
| C97G C114U | -5.14 |
| G44C C64U A111G | -0.526 |
| C22A C115A | -4.55 |
| C88A C104U G127A | -1.76 |

| Variant | polymerase ribozyme fitness (log ratio) |
| --- | --- |
| U7A C89G A91U C97U C115U | -1.85 |
| C13U C28G C49U G69U | -1.49 |
| G39C C73U C99U C102A C124A G135A | -4.92 |
| A6U G117U | -2.79 |
| A16U G52C G71U G117C A118G U126A | -6.61 |
| G47C C102U | -2.99 |
| C3G C4G U7C C53A C123U | 1.4 |
| C3U C13A | -1.28 |
| G39U G61U A121C | 1.22 |
| A50C U55G G58C G61C U81A | 0.349 |
| C8A C70U C89A G120A | -0.458 |
| C11U G44C A46U | -2.61 |
| A2C C114U | -3.24 |
| A2C C13A C72U | -4.81 |
| C4G U9G U116C G128U U131C | -0.342 |
| C11G A29G C94G | -2.16 |
| G25C G61C U96C C98A U112G C123U | -6.63 |
| A6U C15G A37G | -1.93 |
| C22G A50U C56U C76U C88G C124G | -5.33 |
| C12A C124U | 0.853 |
| A6U C8U C70A C101G | -3.42 |
| C49U C56A G120C | 0.0733 |
| G117C U129G | -6.14 |
| A41G G52A U59C U125G | -1.61 |

| Variant | polymerase ribozyme fitness (log ratio) |
| --- | --- |
| U21C A29U C53G G61A C89U | -3.59 |
| G45U G57U A118U | -0.288 |
| G69C C124G | 0.351 |
| A16U G63U G113U | -5.93 |
| C73U C102A U131A | -1.19 |
| C11A U112G | -1.43 |
| G120U U130G | -0.763 |
| C4U C11G C101U | -0.238 |
| A37U G47C C56G C104A | -3.66 |
| A5U A6C A26G G44A U54C A84C C94U | -4.49 |
| U59G C85U U87A U106A | -0.914 |
| C11G G93C C97G U106A G120C | -3.9 |
| C28G G39C C49U G69A | -6.04 |
| G42U A84U C115A G127A | -4.77 |
| G45A C73G C85A | -2.3 |
| C56U C79U G113C | -2.44 |
| C3G A27G C53U C72G C79A C98G U116C | -6.51 |
| G44C C88G G117A C123G | -2.7 |
| C40A G45U G63A G69C C82A C86G C101U C114G | -6.64 |
| C8U G36C G63U | -1.95 |
| G60C C64U | -5.26 |
| G36A C115U | -1.88 |
| C13A G48U A111C | -2.2 |
| C12G U112A | 1.99 |

| Variant | polymerase ribozyme fitness (log ratio) |
| --- | --- |
| U33C G63U A111U A121C C124A | -6.83 |
| G61U U78A | 0.0643 |
| C22G A37U U87G | -3.6 |
| G47U C73U | -1.42 |
| C8A G44C G57C G117C U126A | -5.88 |
| U7G A41G A74U U106A U130C | 0.791 |
| G39U G48A G61C | -2.96 |
| A6C C13U A27U C62A C82A | -4.43 |
| G69U U81C G120C G122A G128A | -3.32 |
| C11U C12G C56A C88U | -1.97 |
| C12A C22A U59A G61C | -5.61 |
| C15A C62G U92C A121U | -4.25 |
| C3U C13A G39U C53A C56U G120U | -0.266 |
| A41C C99U | -5.06 |
| C28U A29U G45C G61A | -3.76 |
| C56G G58U A90U | -1.92 |
| G52A A68G G93A | -5.07 |
| U9G A27G G60A A66C U78G G113U | -6.12 |
| C22G C53U | -4.09 |
| A6C G69U C76G C85G G120U | -1.75 |
| A6G U7C A74C C80G U112G | -6.27 |
| G10C G57A C88U U112G | -3.48 |
| G42A C89U G117A | -3.19 |
| C13U A18U G35U A50G G71A C124G | -7.8 |

| Variant | polymerase ribozyme fitness (log ratio) |
| --- | --- |
| C49U A119U | -0.961 |
| C12A A37U U78A A83G U106C | -3.17 |
| C3U G69C | -1.44 |
| C8U C73U | 1.07 |
| C20A C22G G71A A121G | -3.88 |
| U7G G36A A50C | -0.431 |
| U7G U14G C94A | -0.903 |
| C99U G128U | -5.25 |
| G10A C72A | 0.427 |
| A18U U78C C88U U112G | -2.16 |
| A41U A84G G122A | -3.29 |
| U38G G60A G110C U125A | -6.15 |
| C13U A18C G77A | -1.41 |
| C11G G19U G36U A41U C53U C56A G93C C114A C124U U130A | -6.06 |
| C8G A66G C85A C114U | -3.3 |
| C13A G69A | -3.52 |
| G42A G45C C123U | -1.9 |
| C12U U21A C40G C89G A121G | -1.38 |
| A18U G122U | -2.38 |
| G93C C104U A108G | -2.77 |
| C3U C53U | -1.24 |
| C20U C64U C85G C94G | -3.93 |
| G61C G117U | -4.38 |
| C4U C82U | -0.905 |

| Variant | polymerase ribozyme fitness (log ratio) |
| --- | --- |
| G52C U59C G60U A66G | -5.6 |
| C8G C56A U125A U133G | -0.732 |
| A29U G44A C72U G110A U125A | -5.47 |
| A6U G44U G61A A103U G122A C124G U125G | -4.72 |
| A5C A46U U106C | -1.72 |
| C70U U112G | -0.342 |
| C13U A29U U55A G60A C101G | -4.15 |
| C49G U78G | -0.998 |
| U54A C62A G63A C88A | -3.95 |
| C4U A41G C62A A84C C115U | -4.65 |
| C49G C82U G93U G117U | -4.66 |
| U21A C49U | -1.1 |
| A24G G42U G60U A66U C88G A121G | -3.8 |
| A16U U133G | -2.05 |
| A5U C56G | -1.04 |
| A16U C123A U125A | -0.935 |
| C11G U78G A91G A95C G135U | -1.3 |
| C8U U112A | 1.33 |
| U21A A46G C114G | -3.92 |
| G10A C76U U78A C85A U125G | -1.57 |
| C53A C56U C72G A111C | -1.38 |
| C76A C102A | -3.94 |
| C12A | -0.413 |
| C40U G63C | -0.94 |

| Variant | polymerase ribozyme fitness (log ratio) |
| --- | --- |
| A66U A74G A118U | -0.793 |
| C12G A16C C64U | -2.46 |
| G44C G60A | -1.01 |
| G39U C114U | -2.86 |
| G47C U106A | -1.41 |
| G71U G110A | -1.39 |
| C3U A5C C15A G69C U109A U116A | -5.71 |
| A18U C73A | -3.04 |
| C12G G63U A66U G120U G127U | -0.34 |
| A6U C62A A111U G122A | -5.22 |
| A5G C56U | -0.367 |
| C62A U87A | -1.8 |
| G35U A74G | -5.03 |
| U92C C115U | -2.72 |
| C12A A83U U106G | -2.32 |
| G60A U78A C123U | 0.832 |
| C70U U96G U125A | -1.32 |
| C13G A121U | 0.0945 |
| A18C G69C U133A | -4.77 |
| U32C U81A A90G U112A G113A | -1.38 |
| C3A U9G C98U | -1.51 |
| A6G U38G G47U G117A G120C | -5.06 |
| C11G G110U | -0.409 |
